Literature values as cited in patent publication US20030158199A1, “Novel compounds for inhibition of Tie-2” (KYLIX, B.V., priority 2002, published 2003).

Test system: tumor metastasis
Conditions: delivered at the time of surgical excision of primary tumors, mouse model; cited from earlier work

B1: Ad-ExTek: a soluble adenoviral expressed extracellular domain of Tie-2 (protein, UniProt Q02763 23-748, looked up)
extracellular domain: AMDLILINSLPLVSDAETSLTCIASGWRPHEPITIGRDFEALMNQHQDPLEVTQDVTREWAKKVVWKREKASKINGAYFCEGRVRGEAIRIRTMKMRQQASFLPATLTMTVDKGDNVNISFKKVLIKEEDAVIYKNGSFIHSVPRHEVPDILEVHLPHAQPQDAGVYSARYIGGNLFTSAFTRLIVRRCEAQKWGPECNHLCTACMNNGVCHEDTGECICPPGFMGRTCEKACELHTFGRTCKERCSGQEGCKSYVFCLPDPYGCSCATGWKGLQCNEACHPGFYGPDCKLRCSCNNGEMCDRFQGCLCSPGWQGLQCEREGIQRMTPKIVDLPDHIEVNSGKFNPICKASGWPLPTNEEMTLVKPDGTVLHPKDFNHTDHFSVAIFTIHRILPPDSGVWVCSVNTVAGMVEKPFNISVKVLPKPLNAPNVIDTGHNFAVINISSEPYFGDGPIKSKKLLYKPVNHYEAWQHIQVTNEIVTLNYLEPRTEYELCVQLVRRGEGGEGHPGPVRRFTTASIGLPPPRGLNLLPKSQTTLNLTWQPIFPSSEDDFYVEVERRSVQKSDQQNIKVPGNLTSVLLNNLHPREQYVVRARVNTKAQGEWSEDLTAWTLSDILPPQPENIKISNITHSSAVISWTILDGYSISSITIRYKVQGKNEDQHVDVKIKNATITQYQLKGLEPETAYQVDIFAENNIGSSNPAFSHELVTLPESQAPADLGGGKMLL
modifications: extracellular domain
For B1, the tumor metastasis is listed as “inhibited tumor metastasis”.
